The test concerns the target West Nile virus envelope (E) protein (West Nile virus).

The substance “Aedes aegypti pupal cuticle (PC) protein (AAEL011045) (natural protein)” displayed a survival of mice injected i.p. with WNV pre-incubated with PC protein for an hour at 37°C (against WNV alone, all of which died within 14 days p.i.) of 60%.

Values taken from publication PMC3164632.
